This is an account of results in publication PMC8631942 (eLife, 2021).

The target of assay [1] is T1, His10-BTLA^ICD BTLA^FFFY, pre-phosphorylated (human, UniProt Q7Z6A9 190-289, Y226F | Y243F | Y257F, pre-phosphorylated with Fyn; lone tyrosine (Y282) in the ITSM).
T1 construct: BTLA intracellular domain, human, aa 190-289; triple-tyrosine mutant; Monomeric fraction of the gel filtration was used; also called BTLA-ITSM; source: E. coli (pET28A), purified (Ni-NTA, gel filtration); phosphorylated with purified Fyn; not shown: His10, N-terminal, kept
T1 sequence (looked up): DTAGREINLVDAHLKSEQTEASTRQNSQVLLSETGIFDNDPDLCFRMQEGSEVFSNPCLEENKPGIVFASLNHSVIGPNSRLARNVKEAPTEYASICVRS
Description: SPR; OpenSPR (Nicoya); pre-phosphorylated His10-tagged PD-1 or BTLA ICD immobilised on a Ni sensor chip (about 1500 RU); SH2 injected at 20-1000 nM, 20 μl/min; 20 mM HEPES, 150 mM NaCl, 5 mM imidazole, 0.05% Tween-20, 10% glycerol, pH 7.5; equilibrium analysis (Evaluate EC50, TraceDrawer). The settings on record: both partners purified. A general note: SPR reads the build-up and loss of mass on a sensor chip optically.

In assay [2] the target is T2, His10-PD-1^ICD PD-1^FY, pre-phosphorylated (human, UniProt Q15116 194-288, Y223F, pre-phosphorylated with Fyn; the only tyrosine is in the ITSM (Y248)).
T2 construct: Monomeric fraction of the gel filtration was used; also called PD-1-ITSM; phosphorylated PD-1-ITSM; source: E. coli (pET28A), purified (Ni-NTA, gel filtration); phosphorylated with purified Fyn; not shown: His10, N-terminal, kept
T2 sequence (looked up): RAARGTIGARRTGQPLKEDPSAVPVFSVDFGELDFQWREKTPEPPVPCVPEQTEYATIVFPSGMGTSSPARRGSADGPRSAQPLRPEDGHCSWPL
The assay is described as above. The settings on record: both partners purified.

B1: SNAP-SHP1-cSH2 (domain or fragment)
chain: WYHGHMSGGQAETLLQAKGEPWTFLVRESLSQPGDFVLSVLSDQPKAGPGSPLRVTHIKVMCEGGRYTVGGLETFDSLTDLVEHFKKTGIEEASGAFVYLRQPY
Regarding B1, the Kd – broadly, a measure of binding affinity in units of concentration – in assay [1] was determined as 860 nM; in assay [2], 1700 nM.
